Assay results taken from PMC6179994, “Structural insights on TRPV5 gating by endogenous modulators” (Nature Communications, 2018).

Experiments:
[1] = target: T1, rat calmodulin (CaM), calcium-activated (rat, UniProt P0DP29 1-149); assay: cryo-EM structure; detergent solubilized TRPV5 (DMNG) incubated 1 h with 10 mM CaCl2 and rat CaM at 1:20 (TRPV5 tetramer:CaM), then SEC; map at 4.4 Å without applied symmetry; conditions: both partners purified
T1 construct: calmodulin, rat; modelled from the N-lobe (residues 6-77) and C-lobe (residues 83-147) of PDB 1CLL; Expressed from the pET 28b vector; The patch clamp experiments used purified CaM from bovine testes bought from Sigma, not this recombinant protein; also called Ca^2+-CaM; source: E. coli Rosetta 2(DE3), purified (phenyl sepharose, AKTA purifier)

[2] = target: the molecule itself; assay: cryo-EM structure; lipid-bound TRPV5 in detergent (DMNG) with 200 µM diC8 PI(4,5)P2; C4 symmetry, 3.9 Å

binding result [1]: binds
B1: full-length rabbit TRPV5 (transient receptor potential vanilloid 5) (natural protein, UniProt Q9XSM3 1-730, looked up)
chain: MGACPPKAKGPWAQLQKLLISWPVGEQDWEQYRDRVNMLQQERIRDSPLLQAAKENDLRLLKILLLNQSCDFQQRGAVGETALHVAALYDNLEAATLLMEAAPELAKEPALCEPFVGQTALHIAVMNQNLNLVRALLARGASVSARATGAAFRRSPHNLIYYGEHPLSFAACVGSEEIVRLLIEHGADIRAQDSLGNTVLHILILQPNKTFACQMYNLLLSYDEHSDHLQSLELVPNHQGLTPFKLAGVEGNTVMFQHLMQKRKHVQWTCGPLTSTLYDLTEIDSWGEELSFLELVVSSKKREARQILEQTPVKELVSFKWKKYGRPYFCVLASLYILYMICFTTCCIYRPLKLRDDNRTDPRDITILQQKLLQEAYVTHQDNIRLVGELVTVTGAVIILLLEIPDIFRVGASRYFGQTILGGPFHVIIITYASLVLLTMVMRLTNMNGEVVPLSFALVLGWCSVMYFARGFQMLGPFTIMIQKMIFGDLMRFCWLMAVVILGFASAFHITFQTEDPNNLGEFSDYPTALFSTFELFLTIIDGPANYSVDLPFMYCITYAAFAIIATLLMLNLFIAMMGDTHWRVAQERDELWRAQVVATTVMLERKMPRFLWPRSGICGYEYGLGDRWFLRVENHHDQNPLRVLRYVEAFKCSDKEDGQEQLSEKRPSTVESGMLSRASVAFQTPSLSRTTSQSSNSHRGWEILRRNTLGHLNLGLDLGEGDGEEVYHF
notes: TRPV5, rabbit, full length; tetrameric channel; Eluted from the beads with 1D4 peptide; no removal of the tag is described; source: Saccharomyces cerevisiae, detergent solubilized, purified (1D4 antibody Sepharose beads, SEC on Superose 6)
stoichiometry N [2]: 4 subunits
